Reference: PMC3827151, “Methionine Mutations of Outer Membrane Protein X Influence Structural Stability and Beta-Barrel Unfolding” (PLoS ONE, 2013)
Substitutions are numbered along the chain they refer to. In names and notes the source's numbering stands.

B1: Outer membrane protein X H100N (OmpX^HN) (natural protein, E. coli, UniProt P0A917 24-171, looked up)
chain: ATSTVTGGYAQSDAQGQMNKMGGFNLKYRYEEDNSPLGVIGSFTYTEKSRTASSGDYNKNQYYGITAGPAYRINDWASIYGVVGVGYGKFQTTEYPTYKNDTSDYGFSYGAGLQFNPMENVALDFSYEQSRIRSVDVGTWIAGVGYRF
notes: also called OmpX H100N
B2: Outer membrane protein X H100N:M18L:M21L:M118L quadruple mutant (OmpX^M) (natural protein, E. coli, UniProt P0A917 24-171, looked up)
chain: B1 chain with M18L, M21L, M118L
notes: the 'initiator' Met is kept; PDB 1QJ8 is the parent OmpX^HN; also called Met-less construct

Target: the molecule itself
Assay: SDS-PAGE of unboiled samples (gel mobility shift); protein in 8 M urea diluted 20-fold into LDAO, DPC, 60PC or DMPC in 20 mM Tris-HCl pH 9.5, slow folding at 40°C for 3 h; samples not centrifuged; bands of folded and unfolded monomer and dimer

Row | Protein | binding result
1 | B1 | binds
2 | B2 | binds
